This is an account of results in PMC4879523.

In test [1] the target is α subunit of the chimeric Gi protein fused to TagRFP. Put plainly: FRET or BRET; sensitized-emission FRET in live HeLa cells 2 days after co-transfection; donor EGFP at the C-terminus of LANCL2 forms, acceptor TagRFP at the N-terminus of the chimeric Gi α subunit; apparent FRET efficiency in plasmamembrane or whole-cell ROIs. On the technique in general: BRET reads energy transfer from a luciferase to a nearby fluorophore.

Test [2] has the same target.

B1: LANCL2 fused to EGFP (receptor)
chain: MGETMSKRLKLHLGGEAEMEERAFVNPFPDYEAAAGALLASGAAEETGCVRPPATTDEPGLPFHQDGKIIHNFIRRIQTKIKDLLQQMEEGLKTADPHDCSAYTGWTGIALLYLQLYRVTCDQTYLLRSLDYVKRTLRNLNGRRVTFLCGDAGPLAVGAVIYHKLRSDCESQECVTKLLQLQRSVVCQESDLPDELLYGRAGYLYALLYLNTEIGPGTVCESAIKEVVNAIIESGKTLSREERKTERCPLLYQWHRKQYVGAAHGMAGIYYMLMQPAAKVDQETLTEMVKPSIDYVRHKKFRSGNYPSSLSNETDRLVHWCHGAPGVIHMLMQAYKVFKEEKYLKEAMECSDVIWQRGLLRKGYGICHGTAGNGYSFLSLYRLTQDKKYLYRACKFAEWCLDYGAHGCRIPDRPYSLFEGMAGAIHFLSDVLGPETSRFPAFELDSSKRD
modifications: N-terminal glycine myristoylation
Take B1: in test [1], the apparent FRET efficiency (plasmamembrane ROIs) turned out to be 20% and the apparent FRET efficiency (whole-cell regions) turned out to be 20%. In addition, the [cAMP]i in HeLa cells overexpressing LANCL2-GFP, 30 s after 5 μM ABA, over basal, unstimulated values in test [2] came to 170%.
